Measurements: paper PMC5558740

Target: CX3CR1 2-21 (UniProt P49238)
Assay: affinity chromatography on CX3CR1 peptide-Sepharose, dot blot
Details: reference: Tau42 not phosphorylated; sites S396

Sequence of CX3CR1 2-21 (P49238 whole entry, looked up, tested part not stated): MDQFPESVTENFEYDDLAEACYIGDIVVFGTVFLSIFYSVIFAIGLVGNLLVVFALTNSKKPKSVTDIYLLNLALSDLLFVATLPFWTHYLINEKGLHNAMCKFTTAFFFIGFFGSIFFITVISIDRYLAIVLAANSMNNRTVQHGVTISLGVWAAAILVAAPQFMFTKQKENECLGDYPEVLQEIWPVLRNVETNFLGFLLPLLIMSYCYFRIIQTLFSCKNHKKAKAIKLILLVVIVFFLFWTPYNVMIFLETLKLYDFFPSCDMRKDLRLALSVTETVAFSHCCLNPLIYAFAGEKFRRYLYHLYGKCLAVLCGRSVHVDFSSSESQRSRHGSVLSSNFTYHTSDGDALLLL

## Tau (Tau42) (from UniProt P10636-8) Tau42 phosphorylated by GSK-3β
  other: elution fraction number: weaker; reference 4
